Reference: patent US20240209076A1

Legend:
[1] = target: VEGF-A165 (UniProt P15692); test: Biacore SPR at 37 C, binder captured on Protein A chip, VEGF-A165 0.19 to 15 nM in five steps, 1:1 Langmuir fit
[2] = target: VEGF-A165 (UniProt P15692); test: SPR (Biacore T200), 37 C, binder captured on a Protein A chip, VEGF-A165 0.19 to 15 nM flowed over, 1:1 Langmuir fit
[3] = target: VEGF-A165 (UniProt P15692); test: Biacore T200 SPR at 37 C, binder captured on Protein A chip, VEGF-A165 0.19 to 15 nM in five steps, 60 min dissociation, 1:1 Langmuir fit
[4] = target: VEGF (UniProt P15692); test: cell-based or functional assay
Sequence of VEGF (P15692 other isoform, or with tags, fused parts or gaps limits assumed): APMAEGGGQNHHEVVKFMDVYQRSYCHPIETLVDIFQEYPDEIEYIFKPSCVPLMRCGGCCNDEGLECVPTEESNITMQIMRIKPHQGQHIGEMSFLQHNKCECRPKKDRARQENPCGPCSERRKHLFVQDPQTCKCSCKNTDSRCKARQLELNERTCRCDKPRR

Sequence of VEGF-A165 (P15692 other isoform, or with tags, fused parts or gaps limits assumed): as above
Sequence of Eylea (Fc fusion) (chain): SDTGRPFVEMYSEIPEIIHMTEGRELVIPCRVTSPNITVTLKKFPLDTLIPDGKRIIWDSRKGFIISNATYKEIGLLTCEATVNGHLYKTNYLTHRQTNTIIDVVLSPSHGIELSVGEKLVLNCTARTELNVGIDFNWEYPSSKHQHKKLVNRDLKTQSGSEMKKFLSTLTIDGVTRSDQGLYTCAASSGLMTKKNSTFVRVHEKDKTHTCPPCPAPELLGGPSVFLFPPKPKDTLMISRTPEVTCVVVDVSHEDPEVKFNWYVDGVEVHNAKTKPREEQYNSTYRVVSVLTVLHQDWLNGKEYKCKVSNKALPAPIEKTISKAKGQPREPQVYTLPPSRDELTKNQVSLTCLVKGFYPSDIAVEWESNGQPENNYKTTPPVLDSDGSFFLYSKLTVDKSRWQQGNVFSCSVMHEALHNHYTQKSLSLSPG

Kd [1]: 0.0157 nM
Kd [2]: 0.00622 nM
Kd [3]: 0.00535 nM
cell based VEGF stimulated VEGFR reporter assay, average IC50 [4]: 0.35 nM
Substance: Eylea (Fc fusion)
